Results reported in patent publication US20040018603.
Where a chain is given by its changes, count along the chain named. In names and notes the source's numbering stands. Several values for one entry are separate records, joined by “and”; a condition that tells them apart may be missing. Equal values may be shown once.

Experiments:
[1] = target: GST-Cdc25[254-316]-WT (62-amino acid region of Xenopus Cdc25 fused to glutathione S-transferase)

B1: His6-Xcds1 (histidine-tagged Xcds1 purified from E. coli) (protein)
chain: MMSRDTKTESQQSQGTSSSSSSSAPQSYSQSSSSGTLSSLDTVPVQDLASIPEDPEIDEDIPQPWGRLWALGKGFLNHDCLHEEYVFGRDKKCDYTFDIPVLNQTDRYKTYSKRHFRIFQELGHGHSRVANIEDLSGNGTFVNKEIIGKGRTLPLTNNAEIALSLPTNKVFVFSDLSVDDQTIYPKDFIDKYIMSRPIGSGACGEVKLAFQKSVCKKVAVKIISKRKFKMNTSSNEHPISVDTEIEILKKLDHPCIIKIENFFDSEDFYYIVLELMEGGELFDRVVNSTRLREPIAKLYFYQMLLAVQYLHENGVIHRDLKPENVLLSSTSEECCIKITDFGQSKILGETSLMRTLCGTPTYLAPEVLNTAGTTGYSSAVDCWSLGVILFVCLCGYPPFSEQNSNIPLKNQIAEGKYTYIAAAWRNVSEQAFDLVKNLLVVDPEQRLTTKQALEHPWLQDDSMKHTVERLMYGVDHTMPPPIKKNIIRKRGHEWDQDASTSSCSEILPTSAEKRAKR
With B1 the “phosphorylation in kinase assay with 32P-ATP (SDS-PAGE, PhosphorImager)” value (“phosphorylation in kinase assay” for short) [1] was “His6-Xcds1, but not a catalytically inactive mutant (His6-Xcds1-N324A), phosphorylated a 62-amino acid region of Xenopus Cdc25 fused to glutathione S-transferase (GST-Cdc25[254-316]-WT)” and the “phosphorylation in kinase assay” value (GST-Cdc25[254-316]-S287A) was “a serine-to-alanine mutation at this position abolished the phosphorylation”.

B2: Xenopus laevis protein kinase Cds1 (Xcds1), endogenous protein in Xenopus egg extracts (protein)
chain: B1 chain
For B2, the “kinase activity of the immunoprecipitate” value [1] was “endogenous Xcds1 immunoprecipitated from egg extracts phosphorylated this substrate well”.

B3: His6-Xcds1-N324A (catalytically inactive mutant) (protein)
chain: B1 chain with N324A
B3 was tested, and the “phosphorylation in kinase assay” value [1] was “but not a catalytically inactive mutant (His6-Xcds1-N324A)”.

B4: Hyperphosphorylated Xcds1 protein immunoprecipitated from egg extracts containing poly(dT)40 (protein)
chain: B1 chain
With B4 the kinase activity of the immunoprecipitate, increase over background [1] was 5 fold and 6 fold.
